Measurements reported in publication PMC5662623.

Key:
[1] = target: adaptor protein AP-1; experiment: GST pull-down from rat brain lysate, immunoblot band intensity quantification (anti-adaptin γ); settings: at least three independent experiments; parent: est. 1.0; read off a plot
[2] = target: adaptor protein AP-3; experiment: GST pull-down from rat brain lysate, immunoblot band intensity quantification (anti-β-NAP); settings: at least three independent experiments; parent: est. 1.0; read off a plot

ratio to parent [1]: 0.59
ratio to parent [2]: 0.33
Substance: GST fusion of the WT VGLUT2 C-terminus F518G; I519G
